From paper PMC10104474 (Science Advances, 2023)

B1: MBP-Cit1(Δ1–37) (enzyme, S. cerevisiae, UniProt P00890 38-479, looked up)
chain: SSASEQTLKERFAEIIPAKAEEIKKFKKEHGKTVIGEVLLEQAYGGMRGIKGLVWEGSVLDPEEGIRFRGRTIPEIQRELPKAEGSTEPLPEALFWLLLTGEIPTDAQVKALSADLAARSEIPEHVIQLLDSLPKDLHPMAQFSIAVTALESESKFAKAYAQGVSKKEYWSYTFEDSLDLLGKLPVIASKIYRNVFKDGKITSTDPNADYGKNLAQLLGYENKDFIDLMRLYLTIHSDHEGGNVSAHTTHLVGSALSSPYLSLAAGLNGLAGPLHGRANQEVLEWLFKLREEVKGDYSKETIEKYLWDTLNAGRVVPGYGHAVLRKTDPRYTAQREFALKHFPDYELFKLVSTIYEVAPGVLTKHGKTKNPWPNVDSHSGVLLQYYGLTEASFYTVLFGVARAIGVLPQLIIDRAVGAPIERPKSFSTEKYKELVKKIESKN
B2: Cit2 (full-length, HisSUMO1-tag cleaved) (enzyme, S. cerevisiae, UniProt P08679 1-460, looked up)
chain: MTVPYLNSNRNVASYLQSNSSQEKTLKERFSEIYPIHAQDVRQFVKEHGKTKISDVLLEQVYGGMRGIPGSVWEGSVLDPEDGIRFRGRTIADIQKDLPKAKGSSQPLPEALFWLLLTGEVPTQAQVENLSADLMSRSELPSHVVQLLDNLPKDLHPMAQFSIAVTALESESKFAKAYAQGISKQDYWSYTFEDSLDLLGKLPVIAAKIYRNVFKDGKMGEVDPNADYAKNLVNLIGSKDEDFVDLMRLYLTIHSDHEGGNVSAHTSHLVGSALSSPYLSLASGLNGLAGPLHGRANQEVLEWLFALKEEVNDDYSKDTIEKYLWDTLNSGRVIPGYGHAVLRKTDPRYMAQRKFAMDHFPDYELFKLVSSIYEVAPGVLTEHGKTKNPWPNVDAHSGVLLQYYGLKESSFYTVLFGVSRAFGILAQLITDRAIGASIERPKSYSTEKYKELVKNIESKL

Columns and labels:
Ucc1-Skp1(FL) complex = Ucc1-Skp1(FL) complex (S. cerevisiae, UniProt Q05947 1-369; P52286 1-194); assay: pull-down
crystal structure = target: the molecule itself; assay: crystal structure

Ucc1-Skp1(FL) complex, sequence (Q05947 whole entry, chain 1 of 2): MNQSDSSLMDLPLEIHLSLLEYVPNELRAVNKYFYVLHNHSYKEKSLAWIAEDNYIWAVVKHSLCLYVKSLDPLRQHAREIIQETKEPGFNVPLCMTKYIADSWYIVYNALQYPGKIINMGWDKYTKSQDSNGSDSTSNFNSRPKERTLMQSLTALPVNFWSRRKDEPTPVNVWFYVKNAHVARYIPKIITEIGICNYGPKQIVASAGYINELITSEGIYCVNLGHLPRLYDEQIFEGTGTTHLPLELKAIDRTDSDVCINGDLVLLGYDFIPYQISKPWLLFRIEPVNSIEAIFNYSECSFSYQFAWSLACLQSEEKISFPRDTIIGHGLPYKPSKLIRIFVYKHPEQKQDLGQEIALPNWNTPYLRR
Ucc1-Skp1(FL) complex, sequence (P52286 whole entry, chain 2 of 2): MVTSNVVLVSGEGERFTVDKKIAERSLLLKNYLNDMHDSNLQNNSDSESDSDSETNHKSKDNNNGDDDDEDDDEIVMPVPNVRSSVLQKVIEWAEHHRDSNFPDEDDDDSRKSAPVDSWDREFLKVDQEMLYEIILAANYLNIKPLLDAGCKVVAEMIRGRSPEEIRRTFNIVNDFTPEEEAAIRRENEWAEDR

Row | Binder | binding result (Ucc1-Skp1(FL) complex) | stoichiometry N (crystal structure)
1 | B1 | binds | 
2 | B2 |  | 2
